The record followed here is US20110229922.

In series [1] the target is dabsyl-…-LucY (TMEM27 FRET peptide).
The subject of series [2] is MR121 peptide C TLEFLKI W.
Series [3] relates to T1, TMEM 27 A FRET peptide RINNAFFLND
T1 sequence: RINNAFFLND

Series [4] deals with T2, Amylin FRET peptide GSNTYGKRNA
T2 sequence: GSNTYGKRNA

The subject of series [5] is dabsyl-QTLEFLKIPS-LucY (TMEM27 FRET peptide).
Series [6] deals with T3, APP SW FRET peptide SEVNLDAEFR
T3 sequence: SEVNLDAEFR

The subject of series [7] is T4, MR121 peptide C QTLEFLKIPS W.
T4 sequence: QTLEFLKIPS

For series [8], the system named is T5, APP WT FRET peptide SEVKMDAEFR
T5 sequence: SEVKMDAEFR

For series [9], the system named is T6, MR121 peptide C QTLEFLKIP W.
T6 sequence: QTLEFLKIP

Series [10] deals with MR121 peptide C QTLEFLK W.
Series [11] has as its system T7, MR121 peptide C QTLEFLKI W.
T7 sequence: QTLEFLKI

In series [12] the test system is dabsyl-NSLEFLGIQP-lucifer yellow (ACE2 FRET peptide).
In series [13] the test system is T8, MR121 peptide C QELEFLKI W.
T8 sequence: QELEFLKI

B1: BACE1 (protein)
chain: TQHGIRLPLRSGLGGAPLGLRLPRETDEEPEEPGRRGSFVEMVDNLRGKSGQGYYVEMTVGSPPQTLNILVDTGSSNFAVGAAPHPFLHRYYQRQLSSTYRDLRKGVYVPYTQGKWEGELGTDLVSIPHGPNVTVRANIAAITESDKFFINGSNWEGILGLAYAEIARPDDSLEPFFDSLVKQTHVPNLFSLQLCGAGFPLNQSEVLASVGGSMIIGGIDHSLYTGSLWYTPIRREWYYEVIIVRVEINGQDLKMDCKEYNYDKSIVDSGTTNLRLPKKVFEAAVKSIKAASSTEKFPDGFWLGEQLVCWQAGTTPWNIFPVISLYLMGEVTNQSFRITILPQQYLRPVEDVATSQDDCYKFAISQSSTGTVMGAVIMEGFYVVFDRARKRIGFAVSACHVHDEFRTAAVEGPFVTLDMEDCGYNIPQTDESTLMTIAY
For the protein B1, the “FRET peptide cleavage activity” value in series [1] is “BACE1 had insignificant activity against this peptide”.

B2: BACE2 enzyme ectodomain (enzyme)
chain: AAPELAPAPFTLPLRVAAATNRVVAPTPGPGTPAERHADGLALALEPALASPAGAANFLAMVDNLQGDSGRGYYLEMLIGTPPQKLQILVDTGSSNFAVAGTPHSYIDTYFDTERSSTYRSKGFDVTVKYTQGSWTGFVGEDLVTIPKGFNTSFLVNIATIFESENFFLPGIKWNGILGLAYATLAKPSSSLETFFDSLVTQANIPNVFSMQMCGAGLPVAGSGTNGGSLVLGGIEPSLYKGDIWYTPIKEEWYYQIEILKLEIGGQSLNLDCREYNADKAIVDSGTTLLRLPQKVFDAVVEAVARASLIPEFSDGFWTGSQLACWTNSETPWSYFPKISIYLRDENSSRSFRITILPQLYIQPMMGAGLNYECYRFGISPSTNALVIGATVMEGFYVIFDRAQKRVGFAASPCAEIAGAAVSEISGPFSTEDVASNCVPAQSLSE
modifications: N-terminal Met
For the protein B2, the Relative activity was 28 in series [2]; 21 with MR121 peptide C QTLEF W; 32 in the series with MR121 peptide C QTLEFL W; 91 in series [7]; 75 in series [9]; 24 in the series on MR121 peptide C LEFLKI W. The Relative activity was determined as 62 in [10], 96 in series [11] and 100 in series [13]. In addition, the “FRET peptide cleavage efficiency” value in series [3] is recorded as “cleaved less efficiently”; in [4], “cleaved less efficiently”; in [6], “cleaved less efficiently”; in series [8], “cleaved less efficiently”; in [12] it was “cleaved by BACE2 with an efficiency greater than that of the TMEM27 substrate”. Moreover, the “FRET peptide cleavage activity” value in series [5] is given as “BACE2 had a high activity against this sequence”.
